Experimental data taken from PMC2725194.

Legend:
Test in all cases: AlphaScreen or HTRF
[1] = target: PPARγ ligand binding domain (LBD)
[2] = target: PPARδ ligand binding domain (LBD)
[3] = target: PPARα ligand binding domain (LBD)

Measured: AlphaScreen signal

N-terminal biotinylated CBP1 peptide
< 800: all assays above
